Usually Kd stands for the free concentration of one partner at which half of the binding sites on the other are occupied at equilibrium, for simple one-to-one binding.

Among the test systems are R.Eco29kI Y49A; R.Eco29kI R86A; R.Eco29kI wt.
What all share (experiment): fluorescence polarization
Conditions in all cases: 10 mM Tris-HCl pH 7.5, 50 mM NaCl, no Mg2+, room temperature; FP: 1 nM duplex, 0.1 mg/mL BSA, 20 min; EMSA: 250 nM enzyme, 15 min, 6% gel
On the technique in general: Polarisation of emitted light reports the rotation of a fluorescent probe.

“And” between values parts separate entries of the source, which are not always exact repeats. Equal entries are not always repeated.

“TTTTGGTACCGCGGCCGCAAGCTT (double strand) [24-bp duplex with Eco29kI site]”: the Kd was 49 nM and 529 nM^n with R.Eco29kI Y49A; 21 nM and 344 nM^n in the series with R.Eco29kI R86A; 16 nM and 299 nM^n in the series with R.Eco29kI wt.

Values taken from PMC1952068.
